Values quoted from earlier work as cited in paper PMC5244385.

Target: Fibrinogen (Homo sapiens) (UniProt P02671)
Sequence of UniProt P02671 (P02671 36-866, chain 1 of 3): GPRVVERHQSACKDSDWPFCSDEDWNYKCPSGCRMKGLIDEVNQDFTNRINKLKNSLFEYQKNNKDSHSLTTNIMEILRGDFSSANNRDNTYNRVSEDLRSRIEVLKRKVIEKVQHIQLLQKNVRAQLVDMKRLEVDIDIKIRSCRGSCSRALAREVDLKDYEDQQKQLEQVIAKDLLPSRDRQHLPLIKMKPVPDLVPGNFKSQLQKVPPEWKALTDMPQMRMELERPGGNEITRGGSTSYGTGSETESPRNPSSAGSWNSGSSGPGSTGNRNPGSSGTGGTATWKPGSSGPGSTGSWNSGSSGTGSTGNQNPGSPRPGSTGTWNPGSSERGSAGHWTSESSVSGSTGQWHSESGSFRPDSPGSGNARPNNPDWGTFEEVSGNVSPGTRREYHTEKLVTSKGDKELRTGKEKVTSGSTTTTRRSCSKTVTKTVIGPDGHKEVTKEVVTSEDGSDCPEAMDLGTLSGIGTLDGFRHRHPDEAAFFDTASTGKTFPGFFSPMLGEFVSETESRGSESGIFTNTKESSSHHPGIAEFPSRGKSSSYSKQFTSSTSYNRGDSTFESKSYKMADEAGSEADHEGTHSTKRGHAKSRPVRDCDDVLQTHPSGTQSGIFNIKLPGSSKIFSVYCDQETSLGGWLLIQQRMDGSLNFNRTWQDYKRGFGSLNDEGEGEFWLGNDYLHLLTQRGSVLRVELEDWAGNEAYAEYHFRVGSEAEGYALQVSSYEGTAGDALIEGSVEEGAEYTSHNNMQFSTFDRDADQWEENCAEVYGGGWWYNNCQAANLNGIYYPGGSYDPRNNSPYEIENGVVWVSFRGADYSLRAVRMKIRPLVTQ
Sequence of UniProt P02671 (P02675 45-491, chain 2 of 3, further chain): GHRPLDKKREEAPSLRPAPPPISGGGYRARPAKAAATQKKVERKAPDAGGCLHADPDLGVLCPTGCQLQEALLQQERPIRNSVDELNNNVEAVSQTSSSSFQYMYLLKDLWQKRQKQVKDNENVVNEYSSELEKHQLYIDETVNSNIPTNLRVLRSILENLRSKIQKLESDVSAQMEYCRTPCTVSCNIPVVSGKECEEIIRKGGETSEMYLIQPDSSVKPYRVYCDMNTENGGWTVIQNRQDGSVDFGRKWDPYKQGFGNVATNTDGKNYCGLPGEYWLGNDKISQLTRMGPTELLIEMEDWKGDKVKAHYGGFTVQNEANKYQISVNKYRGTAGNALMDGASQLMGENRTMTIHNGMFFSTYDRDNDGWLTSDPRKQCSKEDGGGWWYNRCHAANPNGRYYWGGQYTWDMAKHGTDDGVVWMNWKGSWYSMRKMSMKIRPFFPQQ
Sequence of UniProt P02671 (P02679 27-453, chain 3 of 3, further chain): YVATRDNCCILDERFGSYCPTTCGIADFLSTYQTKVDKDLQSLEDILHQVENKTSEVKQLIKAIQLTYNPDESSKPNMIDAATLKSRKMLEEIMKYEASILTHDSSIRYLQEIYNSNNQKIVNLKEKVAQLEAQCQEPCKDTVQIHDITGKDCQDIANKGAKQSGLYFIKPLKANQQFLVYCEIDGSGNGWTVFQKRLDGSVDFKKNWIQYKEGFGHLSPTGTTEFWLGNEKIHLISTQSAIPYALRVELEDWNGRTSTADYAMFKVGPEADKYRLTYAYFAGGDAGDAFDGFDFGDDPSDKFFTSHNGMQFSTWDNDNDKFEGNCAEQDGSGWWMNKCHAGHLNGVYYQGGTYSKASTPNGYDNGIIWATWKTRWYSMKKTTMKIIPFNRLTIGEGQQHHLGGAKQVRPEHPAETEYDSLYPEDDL

**Q.** For Clumping factor A (from UniProt Q53653), which Kd is on record?
**A.** The Kd was 510 nM.
